What was measured:
[1] = molecular target: T1, PaDHDPR (Paenisporosarcina sp. TG-14, UniProt A0A3B6UER2, K37A); experiment: isothermal titration calorimetry, one-site model; type: binding
T1 construct: gene dapB; full length, residues 1-264; pET-28a N-terminal His tag removed by thrombin; expressed in E. coli BL21(DE3); homotetramer

[2] = molecular target: T2, PaDHDPR (Paenisporosarcina sp. TG-14, UniProt A0A3B6UER2); experiment: isothermal titration calorimetry, one-site model; type: binding
T2 construct: gene dapB; full length, residues 1-264; pET-28a N-terminal His tag removed by thrombin; expressed in E. coli BL21(DE3); homotetramer
T2 sequence (A0A3B6UER2 2-265): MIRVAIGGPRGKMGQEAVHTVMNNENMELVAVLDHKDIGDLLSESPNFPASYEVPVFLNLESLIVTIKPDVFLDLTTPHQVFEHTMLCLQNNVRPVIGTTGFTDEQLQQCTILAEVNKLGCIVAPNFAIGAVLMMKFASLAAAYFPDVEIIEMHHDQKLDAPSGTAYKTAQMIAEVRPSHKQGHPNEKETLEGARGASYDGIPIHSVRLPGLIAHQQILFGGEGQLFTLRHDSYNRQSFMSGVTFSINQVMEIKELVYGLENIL

[3] = molecular target: T3, PaDHDPR (Paenisporosarcina sp. TG-14, UniProt A0A3B6UER2, H36A); experiment: isothermal titration calorimetry, one-site model; type: binding; details: 50 mM Tris-HCl, 150 mM NaCl, pH 8.0, 25 °C
T3 construct: gene dapB; full length, residues 1-264; pET-28a N-terminal His tag removed by thrombin; expressed in E. coli BL21(DE3); homotetramer
T3 sequence (A0A3B6UER2 entry or part of it H36A): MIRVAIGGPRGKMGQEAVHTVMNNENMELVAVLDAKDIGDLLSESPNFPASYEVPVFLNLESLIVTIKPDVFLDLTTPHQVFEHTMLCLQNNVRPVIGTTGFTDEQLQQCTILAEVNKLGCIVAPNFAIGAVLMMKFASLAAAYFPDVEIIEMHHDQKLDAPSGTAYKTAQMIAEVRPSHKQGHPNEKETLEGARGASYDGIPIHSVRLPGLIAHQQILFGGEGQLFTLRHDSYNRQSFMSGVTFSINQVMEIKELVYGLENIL

[4] = molecular target: Dihydrodipicolinate reductase from Paenisporosarcina sp. TG-14 (Paenisporosarcina sp. TG-14); experiment: AUC; analytical centrifugation of purified PaDHDPR; conditions not told in the main text
[5] = molecular target: T2, PaDHDPR; experiment: X-ray crystallography, co-crystals, […] Å (binary) and […] Å (with NADPH); type: binding; details: 10 mM DPA; substrate site of the C-terminal domain; competitive inhibitor
[6] = molecular target: T2, PaDHDPR; experiment: isothermal titration calorimetry; type: binding; details: 50 mM Tris-HCl, 150 mM NaCl, pH 8.0, 25 °C; 80 μM protein, 1 mM ligand
[7] = substrate: O=C(O)C1=N[C@H](C(=O)O)CC=C1; experiment: purified protein; type: biochemical, Paenisporosarcina sp. TG-14; details: ASA (L-aspartate-semialdehyde) concentration varied and printed as the substrate, ASA fully converted to DHDP by PaDHDPS with 1 mM pyruvate, NADPH, 100 mM HEPES pH 7.5, 25 °C
[8] = substrate: NC(=O)C1=CN([C@@H]2O[C@H](COP(=O)(O)OP(=O)(O)OC[C@H]3O[C@@H](n4cnc5c(N)ncnc54)[C@H](OP(=O)(O)O)[C@@H]3O)[C@@H](O)[C@H]2O)C=CC1; experiment: purified protein; type: biochemical, Paenisporosarcina sp. TG-14; details: NADPH varied, DHDP generated from ASA and pyruvate, 100 mM HEPES pH 7.5, 25 °C, varied: cofactor
[9] = substrate: NC(=O)C1=CN([C@@H]2O[C@H](COP(=O)(O)OP(=O)(O)OC[C@H]3O[C@@H](n4cnc5c(N)ncnc54)[C@H](O)[C@@H]3O)[C@@H](O)[C@H]2O)C=CC1; experiment: purified protein; type: biochemical, Paenisporosarcina sp. TG-14; details: NADH varied, DHDP generated from ASA and pyruvate, 100 mM HEPES pH 7.5, 25 °C, varied: cofactor

T1 sequence (A0A3B6UER2 entry or part of it K37A): as the sequence (A0A3B6UER2 entry or part of it H36A) above, with A35H, K36A counted along it

For `NC(=O)C1=CN([C@@H]2O[C@H](COP(=O)(O)OP(=O)(O)OC[C@H]3O[C@@H](n4cnc5c(N)ncnc54)[C@H](OP(=O)(O)O)[C@@H]3O)[C@@H](O)[C@H]2O)C=CC1` [NADPH], the Kd [1] was 236 µM, the Kd [2] was 37 µM and the no binding detected [3] was “H35A mutation induced complete loss of binding affinity”.

“Dihydrodipicolinate reductase from Paenisporosarcina sp. TG-14 (enzyme)” gave a stoichiometry N [4] of 4.

With `O=C(O)c1cccc(C(=O)O)n1` [DPA] the “X-ray crystallography, co-crystals, 1.8 Å (binary) and 2.1 Å (with NADPH)” value [5] was “Electron density corresponding to DPA was observed in the substrate-binding site of the C-terminal domain”.

`NC(=O)C1=CN([C@@H]2O[C@H](COP(=O)(O)OP(=O)(O)OC[C@H]3O[C@@H](n4cnc5c(N)ncnc54)[C@H](O)[C@@H]3O)[C@@H](O)[C@H]2O)C=CC1` [NADH] was tested, and the no binding detected [6] was “NADH did not bind to PaDHDPR”.

B1: PaDHDPR (Paenisporosarcina sp. TG-14) (protein)
chain: MIRVAIGGPRGKMGQEAVHTVMNNENMELVAVLDHKDIGDLLSESPNFPASYEVPVFLNLESLIVTIKPDVFLDLTTPHQVFEHTMLCLQNNVRPVIGTTGFTDEQLQQCTILAEVNKLGCIVAPNFAIGAVLMMKFASLAAAYFPDVEIIEMHHDQKLDAPSGTAYKTAQMIAEVRPSHKQGHPNEKETLEGARGASYDGIPIHSVRLPGLIAHQQILFGGEGQLFTLRHDSYNRQSFMSGVTFSINQVMEIKELVYGLENIL
notes: full length, residues 1-264; pET-28a N-terminal His tag removed by thrombin; expressed in E. coli BL21(DE3); homotetramer
For B1, the Km [7] was 12 ± 1.6 µM, the kcat [7] was 52 ± 1.1 s⁻¹ and the Km [8] was 22 ± 1.4 µM. It also gave a kcat [8] of 55 ± 1.2 s⁻¹, a Km [9] of 43 ± 8.9 µM and a kcat [9] of 7.1 ± 0.1 s⁻¹.

— PMC5962572, “Crystal structure of dihydrodipicolinate reductase (PaDHDPR) from Paenisporosarcina sp. TG-14: structural basis for NADPH preference as a cofactor” (Scientific Reports, 2018)
